± gives the uncertainty stated by the source.
Experiment: protein stability index of a GFP-peptide fusion (yeast GPS) (PSI 1-4); higher = more stable; sorted into four equal gates, so the index is relative within each strain
Method in brief: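 Yeast carrying a pooled library were grown to mid-log phase in leucine-free medium. Each library plasmid expresses Cherry and has a tiled 17-residue yeast protein peptide fused downstream of GFP. Cells were sorted into four equal gates by GFP/Cherry ratio, and plasmids from each gate were PCR-amplified, Illumina-sequenced and assigned to strains by barcode. Summing, across gates, the read frequency times the gate number gave each peptide's protein stability index.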

Row | Sequence | protein stability index (pdr5∆) | protein stability index (san1∆) | protein stability index (ubr1∆) | protein stability index (doa10∆)
1 | EDEEEEEEVTDQLEDLR [QCR6] | 3.52 ± 0.28 | 3.47 ± 0.083 | 3.25 ± 0.089 | 
2 | FSQFWYWFPLAHFLSLS [RPN2] | 1.32 ± 0.045 | 1.21 ± 0.11 | 1.19 ± 0.038 | 1.66 ± 0.044
3 | RDRTSGQKLLAIKYGYE [SRB4] | 3.17 ± 0.11 | 3.11 ± 0.084 | 3.23 ± 0.096 | 2.9 ± 0.15
4 | RADIVRNIILEARFDVL [ISW2] | 2.25 ± 0.071 | 2.09 ± 0.11 | 2.51 ± 0.073 | 2.66 ± 0.088
5 | VSMITDHNALPQRCTFA [POP1] | 3.01 ± 0.11 | 2.3 ± 0.18 | 2.73 ± 0.13 | 2.97 ± 0.18
6 | GNVTELYGTAIGARSQG [PRE5] | 2.09 ± 0.15 | 1.94 ± 0.071 | 1.31 ± 0.044 | 2.11 ± 0.08
7 | ILPQQSKLKLKNLLRKN [ECM29] | 1.79 ± 0.051 | 2.01 ± 0.07 | 2.25 ± 0.074 | 2.39 ± 0.089
8 | ESQPKQTGTRRNSKLLN [MCD1] | 3.16 ± 0.12 | 3.19 ± 0.079 | 3.12 ± 0.076 | 3.29 ± 0.099
9 | ETTLGEMAEKIDFTLLN [PRP8] | 3.17 ± 0.1 | 3.19 ± 0.098 | 2.71 ± 0.082 | 3.12 ± 0.093
10 | FSISYKPPTQKTDTKVS [SRP21] | 2.15 ± 0.042 | 1.98 ± 0.059 | 2.11 ± 0.033 | 2.24 ± 0.037
11 | DEPDEQGNPKKRPGKLS [CYT1] | 3.45 ± 0.15 | 3.24 ± 0.16 | 3.44 ± 0.089 | 
12 | GSKENYQELGSLQSSSQ [MED2] | 3.45 ± 0.098 | 3.27 ± 0.071 | 3.12 ± 0.093 | 3.16 ± 0.15
13 | NAEKTGKRQVLLRPSSK [RPS22B] | 2.93 ± 0.055 | 3.24 ± 0.046 | 2.85 ± 0.038 | 3.14 ± 0.064
14 | SSGFNEDIVGALRRRVG [REC8] | 1.16 ± 0.055 | 1.44 ± 0.26 | 1.11 ± 0.11 | 1.17 ± 0.085
15 | IPGEEVEETEVPTVPPS [MED4] | 2.42 ± 0.11 | 2.44 ± 0.13 | 2.62 ± 0.059 | 2.66 ± 0.11
16 | SDRSLSEDLFADGLLQV [BRR2] |  |  |  | 3.04 ± 0.28
17 | DLKEGLQDLSRYSRQFI [GRR1] | 2.24 ± 0.058 | 3.02 ± 0.038 | 3.29 ± 0.035 | 3.07 ± 0.062
18 | ESEYREFESELKNVEET [ESC2] | 3.47 ± 0.2 | 3.2 ± 0.18 | 3.31 ± 0.15 | 3.54 ± 0.25
19 | ERNAAYQKEYETAERNI [RPL7A] | 2.61 ± 0.1 | 2.48 ± 0.095 | 2.62 ± 0.18 | 2.71 ± 0.12
20 | IEKARVEAQSHRLTLED [PRE6] |  |  | 3.26 ± 0.15 | 
21 | ERVQSDENKDDELVKLL [SRP68] | 3.42 ± 0.12 |  | 2.96 ± 0.23 | 3.52 ± 0.17
22 | TKLNLHCVIEDDESEQI [RRI1] | 3.16 ± 0.17 | 2.69 ± 0.12 | 2.65 ± 0.15 | 2.2 ± 0.29
23 | GKLISNLSSTPMETLLS [YML031W/NDC1] | 2.92 ± 0.12 | 2.51 ± 0.11 | 2.5 ± 0.063 | 2.61 ± 0.11
24 | GTLWAHVLKTVDYGGAE [SNU114] | 1.32 ± 0.057 | 1.65 ± 0.16 | 1.36 ± 0.057 | 1.44 ± 0.084
25 | NLNVYIQVFEKPFLKKT [CDC53] | 2.23 ± 0.056 | 2.57 ± 0.074 | 2.63 ± 0.057 | 2.2 ± 0.071
26 | SDEEESVLDEQEQYQTN [SNU114] | 3.25 ± 0.079 | 3.25 ± 0.11 | 3.31 ± 0.069 | 3.11 ± 0.14
27 | FGNSLICEDPETAKKIT [SMC2] | 2.74 ± 0.084 | 2.62 ± 0.24 | 2.91 ± 0.075 | 2.82 ± 0.1

Row | Sequence | protein stability index (pdr5∆) | protein stability index (san1∆) | protein stability index (ubr1∆) | protein stability index (doa10∆)
28 | NLFKINSIDVPIRINST [YMR129W/POM152] | 2.2 ± 0.042 | 2.02 ± 0.058 | 2.17 ± 0.033 | 1.89 ± 0.044
29 | IKEDIEKFDLERVTALK [SMC1] |  | 3.41 ± 0.1 |  | 3.63 ± 0.21
30 | DQLEDLREHFKNTEEGK [QCR6] | 3.51 ± 0.14 | 3.36 ± 0.072 |  | 2.75 ± 0.27
31 | QVPLQQTQAIAQQQQLS [YGR119C/NUP57] | 2.41 ± 0.076 | 2.15 ± 0.077 | 2.29 ± 0.06 | 2.14 ± 0.08
32 | NNPKIQTKDSVKEIVLP [IRR1] | 2.94 ± 0.077 | 3 ± 0.059 | 3.11 ± 0.051 | 3.17 ± 0.07
33 | GGLQKGKLVVSQEMVPR [SIR3] | 2.83 ± 0.13 | 2.32 ± 0.076 | 3.23 ± 0.12 | 3.03 ± 0.07
34 | LNICRQCFREKANDIGF [RPS29A] | 2.97 ± 0.12 | 3.07 ± 0.1 | 2.86 ± 0.11 | 2.8 ± 0.094
35 | NGMFCQVPSSLIVRAKN [RRP4] | 2.5 ± 0.12 | 2.31 ± 0.092 | 2.27 ± 0.082 | 2.07 ± 0.064
36 | AEASFTFGTKHAADSQN [YLR335W/NUP2] | 3.01 ± 0.13 | 3.03 ± 0.092 | 2.67 ± 0.091 | 3.27 ± 0.14
37 | TIRYLMQKQHEMKTQAA [SNF6] | 2.98 ± 0.051 | 2.99 ± 0.046 | 2.9 ± 0.032 | 2.83 ± 0.049
38 | VLKADRSWNEPSKSQTN [YML103C/NUP188] | 3.16 ± 0.1 | 2.89 ± 0.097 | 3.27 ± 0.083 | 2.93 ± 0.11
39 | HFENAKVIDLDTKLKAH [YIL149C/MLP2] | 2.73 ± 0.086 | 2.09 ± 0.11 | 2.48 ± 0.073 | 2.62 ± 0.073
40 | IKLGSTAIGIATKEGVV [PUP2] | 1.63 ± 0.18 | 1.34 ± 0.26 | 1.32 ± 0.11 | 1.54 ± 0.11
41 | IKGNGESDETTTDNNNS [RPT1] |  | 3.38 ± 0.04 | 3.53 ± 0.11 | 3.15 ± 0.15
42 | MDSKGKITIGIQRTTES [RGR1] | 3.39 ± 0.066 | 3.33 ± 0.083 | 3.11 ± 0.075 | 3.44 ± 0.075
43 | SFVFGQAAAKPSLEKSS [YLR335W/NUP2] | 2.5 ± 0.1 | 2.21 ± 0.14 | 2.67 ± 0.09 | 1.79 ± 0.1
44 | KACKTADKLVNVTQNEQ [SRP68] | 3.04 ± 0.095 | 3 ± 0.073 | 3.07 ± 0.07 | 3.02 ± 0.13
45 | NANTVFSERAAMFAALQ [SWI1] | 2.32 ± 0.043 | 2.4 ± 0.055 | 2.38 ± 0.032 | 2.31 ± 0.049
46 | GTGLFGQQTAQPQQSTI [YGR119C/NUP57] | 3.13 ± 0.046 | 2.85 ± 0.051 | 3.19 ± 0.058 | 2.76 ± 0.063
47 | IHLKQKLSESLDTRKEL [SMC3] | 3.03 ± 0.24 | 3.4 ± 0.18 | 3.49 ± 0.15 | 
48 | NGGEDTSVENEGPVANL [REC8] | 3.45 ± 0.094 | 3.06 ± 0.11 | 3.16 ± 0.058 | 3.37 ± 0.089
49 | VLEFCKDYEAKTKAMSL [POP1] | 2.67 ± 0.043 | 2.73 ± 0.037 | 3.06 ± 0.031 | 3.06 ± 0.045
50 | SNIDYQTLLANSDHAKF [SNF2] | 2.28 ± 0.093 | 2.32 ± 0.11 | 2.53 ± 0.075 | 2.24 ± 0.084
51 | APQLFPYGSFHQQQLQQ [DSN1] | 2.84 ± 0.09 | 2.77 ± 0.087 | 3.15 ± 0.069 | 2.77 ± 0.076
52 | ANLGKYGILSIDDLIHE [RPL7A] | 1.98 ± 0.094 | 1.54 ± 0.17 | 1.15 ± 0.086 | 1.78 ± 0.092
53 | NFILEVFGTIIPKISDY [YJL039C/NUP192] | 1.68 ± 0.22 |  | 1.61 ± 0.26 | 2.05 ± 0.17
